± gives the uncertainty stated by the source.
Assay: amyloid nucleation score (Sup35N fusion, yeast selection) (log enrichment); library NNK3; higher = more nucleation; inactive = no reads after selection
Outline: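 In psi-negative yeast, Sup35N fusions carrying peptides of 20 random codons were induced with 100 μM copper sulfate for 24 hours. The cells then grew 7 days at 30°C on medium lacking adenine and uracil, and plasmid inserts from input and output were Illumina-sequenced, excluding sequences with under 100 input reads. Nucleation score is the DiMSum log enrichment of output over input reads, centred on the mode score of non-aggregating sequences.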

Row | Substance | amyloid nucleation score
1 | RWLTVKPSRIRLWGCSWGLR | inactive
2 | RWRIEEPTI | inactive
3 | RWSILDGHHNVVLSVPSKS | inactive
4 | RWSNYMFDRQLY | -1.2 ± 1.8
5 | RWVNWLLYDKV | inactive
6 | RYCGYHGVRFCSVCRFNMSL | inactive
7 | RYDMRVVSRNQLKYWTMGRE | -0.646 ± 1.1
8 | RYFNGPYLGRTVFEFT | inactive
9 | RYFTLISYVVVVEVSLEKPW | inactive
10 | RYLITVAIPLSIGVLSTV | inactive
11 | RYLLPQIPLLYKWKLLILHG | inactive
12 | RYLYTRNLDMTRTL | inactive
13 | RYNRA | inactive
14 | RYPSDSIGFISLDTGGCGVR | inactive
15 | RYSVYGLNICFL | 2.45 ± 0.083
16 | RYTTY | inactive
17 | RYVEWYLR | inactive
18 | RYYCMYSSGEIRCSVSWGVW | inactive
19 | SAACPWNWLDGASPPLRATA | inactive
20 | SACSVIFTEYINVSLLLSST | 0.251 ± 0.42
21 | SADQSCYSPHFGGQRDRRWL | inactive
22 | SAEVAYGSFVYAGSWCRSVR | inactive
23 | SALEVFLWNKYLFVDVTLLL | inactive
24 | SALPVTSCFFTTMCGTVIID | inactive

Row | Substance | amyloid nucleation score
25 | SAQNYTL | inactive
26 | SAVKWC | inactive
27 | SAWVVFVVFFVSFDPDILFY | inactive
28 | SCDLELSNLELRVWRDTVRK | 1.8 ± 0.069
29 | SCDRVFNLDVNRWKLMRKTC | inactive
30 | SCHSSSGGWEVSGNYRRGKL | inactive
31 | SCISKWST | inactive
32 | SCRFRVLRVFLGQTMYSSSI | inactive
33 | SCVAVSI | inactive
34 | SCVPWICWNCQVPGL | 0.881 ± 0.18
35 | SCVRVTSLGVNNTRFFDRSW | inactive
36 | SCVTHLPTVT | inactive
37 | SDCKMISHFGEVINILSYKI | inactive
38 | SDDDSYLWSSLFQA | inactive
39 | SDFAIWKDFDG | 1.21 ± 0.1
40 | SDFEAFSFGDNMVFLIEMEG | inactive
41 | SDFHCTQKRNMVWEEIA | inactive
42 | SDFRTRTNIQYLQYKNNSSP | inactive
43 | SDGFLSADYRFFMMLRYRLE | inactive
44 | SDHLQ | inactive
45 | SDIVCVKLEYT | inactive
46 | SDKFMLRHHLCWDARSCFQV | 0.348 ± 0.75
47 | SDKLSFSRDPSVMRVGQVQR | inactive
48 | SDKRPWGFRNRDIYVIVGHR | inactive

Row | Substance | amyloid nucleation score
49 | SDLCRSMSNQFSELSSNDFV | inactive
50 | SDLMRKKMDGMDRNEGCPIR | inactive
51 | SDRARRC | 0.163 ± 0.98
52 | SDYLRMVVTYPQTLLYQGTK | inactive
53 | SDYSLYWFK | inactive
54 | SEIIHLGFYYDP | inactive
55 | SELETQDIYMRSQPFTEFSP | inactive
56 | SERYEEMTFSDGYMFSRDDL | inactive
57 | SEYFWLVWPSA | inactive
58 | SFCGLYVKFSVGYVVLIWGS | inactive
59 | SFDARCGWKLNMFYSCSFIQ | -0.009 ± 0.81
60 | SFDVLSRV | inactive
61 | SFESVVYYSWRFVAKFKFWT | inactive
62 | SFHTHRGYNG | inactive
63 | SFHTSGSNKGYCCGVMWMDK | inactive
64 | SFITIVIVSVGMRSLVLHRL | inactive
65 | SFLRTVNGGRFSSVCSL | inactive
66 | SFNFCLFASLSALCMTRVEF | inactive
67 | SFNNACVFYMNSWLRWRI | 1.96 ± 0.083
68 | SFNRISIFYVNWCTAMNFVY | 1.13 ± 0.093
69 | SFRFWSFYTCGEYKWDGTKG | inactive
70 | SFRMSTSCWSSGALMYRLYR | inactive
71 | SFRRLDGNRNLFSSCRVNGL | inactive
72 | SFSCMKDSGPNMCKGLRVKQ | inactive

Row | Substance | amyloid nucleation score
73 | SFSIDLMTSLSWHLLSCRTF | inactive
74 | SFSSFVFTMEALASAVSTHH | inactive
75 | SFTAYVASLA | -0.151 ± 1.1
76 | SFTRCWLNKREMKMYTFSAR | inactive
77 | SFYYILYTGCVIGIVASLFK | -0.408 ± 0.58
78 | SGCERAWMAVCENRSSCILG | inactive
79 | SGDPSSLEDIGFVIYWRIYI | inactive
80 | SGFYSLIVYNGFERALFVGS | inactive
81 | SGKGKCVYNVLRQGFFSKMS | inactive
82 | SGKILQRPLSWLSCVMQVES | inactive
83 | SGLDFAYLDECSREGSVYAG | inactive
84 | SGLRASSSVMSCAYLTISWN | inactive
85 | SGQNKEQVVWMCTVRLPESS | inactive
86 | SGSAELARLHYRMELKAPYL | inactive
87 | SGTFYANVWFRFISFGWYLR | inactive
88 | SHCVSTT | inactive
89 | SHGGYACTSLIMTLIPLLYM | inactive
90 | SHGHDSVTRNRQGPCGIRIY | inactive
91 | SHIFCSFFKSSYLNSGWQHG | inactive
92 | SHKFMRCGPQMASGCNWELA | inactive
93 | SHPYLT | 0.071 ± 0.35
94 | SHVLWDGTWEVGGGGHKA | inactive
95 | SHVNRVRSLYVGE | inactive
96 | SIDLNGKG | inactive

Row | Substance | amyloid nucleation score
97 | SIFLGLRSRQLSFISLLEDG | inactive
98 | SIFMCNIVLFKRVVLPRGAS | 0.886 ± 0.18
99 | SILLIFCLSKTRFSVMSFLP | inactive
100 | SIMREMWWSDTLFGGMNRFW | 0.992 ± 0.11
101 | SIMYFVTNGCGNGC | 1.79 ± 0.086
102 | SIPLLTQMWTVNGNRRWQTA | inactive
103 | SIRNFVTSENTVLSDIKPWR | inactive
104 | SISYINRKHTRNDTPRLRGV | inactive
105 | SIWEHRSNS | inactive
106 | SIYFWCS | 2.09 ± 0.065
107 | SKCVGISLRALVYYGHSQVT | inactive
108 | SKFFQQPWL | inactive
109 | SKIFSCYVVLKSMLTDPGVA | inactive
110 | SKLCELLSLQTAVAYMMSGA | inactive
111 | SKLHAE | inactive
112 | SKTGLDMADMIKRGDCGEST | inactive
113 | SKVRICKDKGWSG | inactive
114 | SKVWRYI | inactive
115 | SKYKVCFTRSFF | inactive
116 | SLCLYNSFLSSL | inactive
117 | SLCRRWVNLDTGSPYGTL | inactive
